Experiment [1] relates to NOS. The experiment can be described thus: Radioligand binding of [125I]-calmodulin to NOS. Also noted: scale not given here. The following applies: peptide 100 μg/ml; ligand 1 nM, 15 minutes at 23° C.; mean ± SEM. As for the experimental part:
(§1) NOS activity measurements were performed using recombinant rat NNOS (purified from overexpressing HEK293 cells), recombinant bovine ENOS (purified from overexpressing E. coli) or native INOS (from immunostimulant-activated rat aortic smooth muscle cells). Activity was determined with 1-20 pmole of NOS using a kinetic 96-well microtiter plate assay based on the kinetics of NADPH consumption (NNOS and ENOS) or Fe^2+-myoglobin oxidation. Radioligand binding was performed after incubation of 1-2 pmole of NOS for 15 minutes at 23° C. with either Bolton-Hunter labelled [125I]-calmodulin (1 nM) or [3H]-N-nitro-L-arginine (200 pM) and the indicated peptides. Values are means ±SEM of triplicate determinations.

In experiment [2] the target is INOS (Rattus norvegicus, UniProt Q06518). Description: INOS activity by oxidation of ferrous myoglobin by product NO. Type of experiment: biochemical. Details: unit not given here. Conditions: peptide 0.1 mg/ml; no peptide: 14.9 ± .56. As for the experimental part: (§2) JX series polypeptides are approximately 30-mers derived from ENOS and NNOS inhibitory polypeptides. B058 series are shorter (6-mers to 15-mers) peptides derived from flanking loops or from shorter segments of inhibitory polypeptides. CAM binding data represents counts from radiolabeled CAM trapped on a membrane by NNOS adhesion. INOS activity was assayed by measuring oxidation of ferrous myoglobin by product NO.

The target of experiment [3] is T1, native INOS (from immunostimulant-activated rat aortic smooth muscle cells) (Rattus norvegicus, UniProt Q06518).
T1 construct: endogenous in cells
The experiment can be described thus: NOS activity, kinetic 96-well microtiter plate assay, Fe2+-myoglobin oxidation. Format: biochemical. Conditions: peptide 100 μg/ml; mean ± SEM, triplicate. Here is the method:
as §1

For experiment [4], the system named is NOS. The experiment can be described thus: Radioligand binding of [3H]-N-nitro-L-arginine to NOS. Details: scale not given here. Conditions: peptide 100 μg/ml; ligand 200 pM, 15 minutes at 23° C.; mean ± SEM. As for the experimental part:
as §1

Experiment [5] addresses T2, ENOS (Bos taurus, UniProt P29473).
T2 sequence (P29473 2-1205): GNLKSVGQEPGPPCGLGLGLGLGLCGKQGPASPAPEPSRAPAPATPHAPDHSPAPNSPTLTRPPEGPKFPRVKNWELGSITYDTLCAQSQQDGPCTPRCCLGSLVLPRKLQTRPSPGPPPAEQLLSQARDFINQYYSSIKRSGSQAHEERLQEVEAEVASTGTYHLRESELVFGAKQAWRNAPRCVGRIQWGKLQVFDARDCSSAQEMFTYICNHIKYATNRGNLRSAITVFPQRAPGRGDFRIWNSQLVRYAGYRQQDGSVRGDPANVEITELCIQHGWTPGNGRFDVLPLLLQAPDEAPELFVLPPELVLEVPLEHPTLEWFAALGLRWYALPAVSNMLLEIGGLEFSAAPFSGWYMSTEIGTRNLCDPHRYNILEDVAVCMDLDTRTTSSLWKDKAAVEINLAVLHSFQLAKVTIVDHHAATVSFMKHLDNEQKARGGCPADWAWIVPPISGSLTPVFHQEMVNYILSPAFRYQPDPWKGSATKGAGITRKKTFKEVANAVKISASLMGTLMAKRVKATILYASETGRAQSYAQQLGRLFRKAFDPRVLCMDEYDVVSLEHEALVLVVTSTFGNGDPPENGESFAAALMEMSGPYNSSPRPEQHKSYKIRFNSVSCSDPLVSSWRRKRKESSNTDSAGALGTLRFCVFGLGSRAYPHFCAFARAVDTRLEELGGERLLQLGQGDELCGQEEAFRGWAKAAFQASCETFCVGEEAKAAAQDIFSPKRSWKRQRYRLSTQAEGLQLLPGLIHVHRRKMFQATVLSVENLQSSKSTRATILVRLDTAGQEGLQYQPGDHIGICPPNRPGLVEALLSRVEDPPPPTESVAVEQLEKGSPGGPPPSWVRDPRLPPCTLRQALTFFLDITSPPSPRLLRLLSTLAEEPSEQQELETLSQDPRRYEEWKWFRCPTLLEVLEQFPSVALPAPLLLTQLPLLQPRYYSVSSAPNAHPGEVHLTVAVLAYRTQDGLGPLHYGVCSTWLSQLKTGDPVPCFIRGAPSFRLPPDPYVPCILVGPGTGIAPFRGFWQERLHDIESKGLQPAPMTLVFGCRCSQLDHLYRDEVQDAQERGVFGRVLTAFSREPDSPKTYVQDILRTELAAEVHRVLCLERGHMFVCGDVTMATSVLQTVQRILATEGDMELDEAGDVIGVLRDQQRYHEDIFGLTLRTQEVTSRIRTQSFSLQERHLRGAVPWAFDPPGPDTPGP
The experiment can be described thus: Effects on calmodulin binding (Example 3), ENOS. The text has this:
(§3) In addition to the inhibition of enzyme activity, it is possible to modulate CAM binding to NOS with synthetic homologs of the control site elements. The relationship between enzyme inhibition and CAM binding in the presence of control site elements can be complex. In other systems, antibodies to inhibitory elements sometimes induce partial CAM independent activation, while preventing CAM dependent activation. It is important to remember that CAM binding is only a means to displace the inhibitor.
(§4) While a number of the polypeptides could modulate CAM binding, the series containing the RRKRK (SEQ ID NO: 10) motif was the most instructive. […] CAM binding was decreased almost to background levels, with effects seen at the 10 uM level.

For experiment [6], the target named is T3, NNOS (Rattus norvegicus, UniProt P29476). The experiment can be described thus: Effects on calmodulin binding (Example 3), NNOS.
From the text: as §3, §4

Experiment [7] concerns the target T4, recombinant rat NNOS (Rattus norvegicus, UniProt P29476).
T4 construct: made in house; host or cells: HEK293 cells
The experiment can be described thus: NOS activity, kinetic 96-well microtiter plate assay, NADPH consumption. Format: biochemical. Conditions: peptide 100 μg/ml; mean ± SEM, triplicate. Here is the method:
as §1

In experiment [8] the target is T5, recombinant bovine ENOS (Bos taurus, UniProt P29473).
T5 construct: made in house; host or cells: E. coli
T5 sequence (P29473 1-1205): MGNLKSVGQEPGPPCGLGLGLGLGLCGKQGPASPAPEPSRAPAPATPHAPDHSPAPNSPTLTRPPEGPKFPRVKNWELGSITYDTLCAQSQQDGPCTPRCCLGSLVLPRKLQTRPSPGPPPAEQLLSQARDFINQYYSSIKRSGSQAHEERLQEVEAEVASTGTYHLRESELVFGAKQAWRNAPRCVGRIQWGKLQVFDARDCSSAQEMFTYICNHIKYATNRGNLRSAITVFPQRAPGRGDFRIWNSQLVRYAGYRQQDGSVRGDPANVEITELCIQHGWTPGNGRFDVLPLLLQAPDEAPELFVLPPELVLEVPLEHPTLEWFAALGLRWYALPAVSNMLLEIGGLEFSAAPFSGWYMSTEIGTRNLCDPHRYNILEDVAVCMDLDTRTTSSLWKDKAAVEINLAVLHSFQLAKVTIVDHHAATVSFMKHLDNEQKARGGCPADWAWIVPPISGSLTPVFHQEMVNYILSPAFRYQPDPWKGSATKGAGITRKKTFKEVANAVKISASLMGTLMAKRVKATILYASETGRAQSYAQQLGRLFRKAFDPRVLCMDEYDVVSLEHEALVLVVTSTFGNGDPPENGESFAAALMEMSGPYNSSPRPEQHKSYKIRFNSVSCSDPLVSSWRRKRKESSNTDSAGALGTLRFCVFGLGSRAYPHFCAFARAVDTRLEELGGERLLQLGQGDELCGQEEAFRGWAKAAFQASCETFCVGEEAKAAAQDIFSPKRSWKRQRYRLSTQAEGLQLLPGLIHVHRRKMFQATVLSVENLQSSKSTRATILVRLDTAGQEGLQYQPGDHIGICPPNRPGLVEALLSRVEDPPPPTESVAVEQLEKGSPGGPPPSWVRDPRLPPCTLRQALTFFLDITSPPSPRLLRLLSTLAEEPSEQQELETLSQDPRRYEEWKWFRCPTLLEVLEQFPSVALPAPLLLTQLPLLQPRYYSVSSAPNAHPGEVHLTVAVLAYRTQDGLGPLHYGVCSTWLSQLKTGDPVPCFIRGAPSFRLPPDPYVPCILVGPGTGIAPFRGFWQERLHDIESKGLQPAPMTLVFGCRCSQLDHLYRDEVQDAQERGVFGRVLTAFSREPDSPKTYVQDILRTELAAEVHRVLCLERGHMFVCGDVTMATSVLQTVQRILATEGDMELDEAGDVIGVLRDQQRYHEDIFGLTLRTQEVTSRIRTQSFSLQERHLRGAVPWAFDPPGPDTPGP
The description is as above. Format: biochemical. The following applies: peptide 100 μg/ml; mean ± SEM, triplicate. As for the experimental part: as §1

Experiment [9] deals with T3, NNOS. Description: CAM binding: radiolabeled CAM trapped on a membrane by NNOS adhesion. The following applies: no peptide: 774 ± 40. Here is the method:
as §2

T3 sequence (P29476 whole entry): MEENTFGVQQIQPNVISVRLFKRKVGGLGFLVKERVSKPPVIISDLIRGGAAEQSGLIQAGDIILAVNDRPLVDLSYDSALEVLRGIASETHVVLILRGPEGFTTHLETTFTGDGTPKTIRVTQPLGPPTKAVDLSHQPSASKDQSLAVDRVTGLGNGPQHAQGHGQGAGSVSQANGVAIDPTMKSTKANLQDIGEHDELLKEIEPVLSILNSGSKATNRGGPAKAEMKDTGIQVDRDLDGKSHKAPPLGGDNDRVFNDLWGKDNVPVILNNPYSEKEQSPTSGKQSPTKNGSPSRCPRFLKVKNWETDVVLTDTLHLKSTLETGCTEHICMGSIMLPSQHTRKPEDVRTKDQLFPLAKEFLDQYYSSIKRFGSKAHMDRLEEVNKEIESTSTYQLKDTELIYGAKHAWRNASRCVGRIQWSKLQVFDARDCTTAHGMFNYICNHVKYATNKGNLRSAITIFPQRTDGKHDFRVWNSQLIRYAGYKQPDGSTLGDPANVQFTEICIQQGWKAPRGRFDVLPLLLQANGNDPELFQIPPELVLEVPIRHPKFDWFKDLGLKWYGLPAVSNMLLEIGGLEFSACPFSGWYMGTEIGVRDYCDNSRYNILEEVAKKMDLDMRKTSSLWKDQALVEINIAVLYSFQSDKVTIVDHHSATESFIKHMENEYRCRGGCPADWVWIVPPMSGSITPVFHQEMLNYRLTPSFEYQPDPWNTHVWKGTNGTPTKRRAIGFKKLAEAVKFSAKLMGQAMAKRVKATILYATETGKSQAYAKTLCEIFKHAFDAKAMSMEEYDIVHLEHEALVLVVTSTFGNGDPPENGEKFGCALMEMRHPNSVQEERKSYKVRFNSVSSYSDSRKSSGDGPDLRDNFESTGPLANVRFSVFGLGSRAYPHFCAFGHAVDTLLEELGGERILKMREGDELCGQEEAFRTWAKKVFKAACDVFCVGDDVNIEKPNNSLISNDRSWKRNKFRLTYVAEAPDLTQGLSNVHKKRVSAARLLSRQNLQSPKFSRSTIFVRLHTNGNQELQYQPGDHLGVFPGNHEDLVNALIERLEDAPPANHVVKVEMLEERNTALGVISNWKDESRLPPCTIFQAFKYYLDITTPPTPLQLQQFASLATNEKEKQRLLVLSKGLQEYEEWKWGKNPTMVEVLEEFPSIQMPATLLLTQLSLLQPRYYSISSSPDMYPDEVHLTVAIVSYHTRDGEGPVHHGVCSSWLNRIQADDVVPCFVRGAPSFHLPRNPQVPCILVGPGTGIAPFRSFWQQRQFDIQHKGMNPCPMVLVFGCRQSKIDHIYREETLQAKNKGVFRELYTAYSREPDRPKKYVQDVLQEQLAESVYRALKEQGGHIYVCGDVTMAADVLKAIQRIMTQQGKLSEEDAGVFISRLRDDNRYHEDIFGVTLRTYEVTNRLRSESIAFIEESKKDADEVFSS
T4 sequence (P29476 whole entry): as above

As to “SSWRRKRKESS [BO58-08, 13; b114 cites it by residues 4-11]”, the “Ligand binding to NOS [125I]-CAM” value in experiment [1] turned out to be 0.0 ± 0.5. In [2], the “INOS Activity 0.1 mg/ml” value was 14.5 ± .70. In addition, the “NOS Activity (% of control) INOS” value in experiment [3] was 92.1 ± 1.3 % of control. For the same sequence, the “Ligand binding to NOS [3H]-NHA” value in experiment [4] turned out to be 120.7 ± 12.7. Moreover, in experiment [5], the “effect on CAM binding to ENOS (in words)” value is recorded as “potent CAM antagonist”. Further, the “level at which effects on CAM binding are seen” value in experiment [5] (ENOS) and in experiment [6] (NNOS) was 10 µM throughout. In addition, the “effect on CAM binding to NNOS (in words)” value in experiment [6] is reported as “potent CAM antagonist”. In addition, in [7], the “NOS Activity (% of control) NNOS” value is recorded as 19.1 ± 0.9 % of control. Also, in experiment [8], the “NOS Activity (% of control) ENOS” value was 27.7 ± 2.0 % of control. Further, the “NNOS CAM Binding” value in experiment [9] worked out at 152 ± 26 counts.

The values are drawn from US6750197B1, “Activators of endothelial nitric oxide synthase” (Rensselaer Polytechnic Institute, priority 1996, dated 2004).
